The source of these data is patent US20160178645A1 (University of California, published 2016).

In the experiment the target is T1, human Aβ1-42 oligomers (human, UniProt P05067 672-713, fluorescently labeled in the TIRF imaging (HiLyte Fluor 647-labeled peptide bought, paragraph 100; 'AlexFlour647-conjugated' in paragraph 102); position not stated).
T1 construct: domain: Aβ1-42; Preformed oligomers; only the Aβ1-42 peptide was used; also called labeled Aβ1-42 oligomers; HiLyte Fluor 647-labeled Aβ1-42
The experiment in a line: TIRF single molecule imaging with photobleaching of aggregates formed in Httl4A2.6 lysates (data not shown). As to the method: Httl4A2.6 cells were treated with 0.5 μM of Aβ1-40, Aβ1-42, alpha-synuclein, and A53T alpha-synuclein, Alzheimer's disease (AD), and Parkinson's disease—associated oligomers, in the same manner as polyQ seeds. No significant enhancement of intracellular mHttex 1-GFP aggregates was detected (data not shown). Confirming results were obtained from filter retardation-GFP immunoblotting following cell-free aggregation assays; no notable changes in mHttex1 aggregation were found in the cell lysates with up to 5 μM of Aβ1-40, Aβ1-42, alpha-synuclein, and A53T alpha-synuclein oligomeric seeds (data not shown). These observations were further corroborated by the total internal reflection microscopy (TIRF) single molecule imaging results based on photobleaching of mHttex1-GFP aggregates formed in Httl4A2.6 lysates seeded with either AlexFlour647-conjugated polyQ or Aβ1-42 oligomers (data not shown). In contrast to the polyQ oligomers, which were mostly linked with mHttex1-GFP aggregates from photobleaching imaging, few labeled Aβ1-42 oligomers overlapped with GFP fluorescence from the mHttex1-GFP aggregates.

T1 sequence (P05067 672-713 limits assumed): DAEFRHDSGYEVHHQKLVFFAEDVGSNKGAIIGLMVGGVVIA

B1: mHttex1-GFP (truncated expanded repeat Httn exon 1 protein fused at the C-terminus to EGFP) (other)
chain: MATLEKLMKAFESLKSFQQQQQQQQQQQQQQQQQQQQQQQQQQQQQQQQQQQQQQQQQQQQQQQQQQQQQQQQQQQQQQQQQQQQQQQQQQQQQQQQQQQQQQQQQQQQQQQQQQQQQQ
notes: Expressed in Httl4A2.6 inducible PC12 cells after Ponasterone A induction; tested inside cells or in cell lysate supernatants; No linker between Httn part and EGFP is described; also called N17-103Q-EGFP; GFP-tagged mHtt exon 1 protein; not shown: enhanced green fluorescent protein (EGFP), fused at the C-terminus; EGFP is an eng
With B1, the binding result is “no binding”.
